How the values were obtained:
[1] = biological target: Recombinant gp120 protein from HIV-1 strain IIIB (HIV-1 strain IIIB) (UniProt P04578); assay: SPR; gp120 (115 RUs) and gp41 (45 RUs) amine-coupled on a CM4 chip; lectins as analytes (two-fold dilutions, 0-20 nM HHA, 0-4000 nM Ld WCFS1, 0-1000 nM Ld CMPG5300); 1:1 binding model, apparent KD; 25 °C, Biacore T200, HBS-P pH 7.4 (10 mM HEPES, 150 mM NaCl, 0.05% P20) with 10 mM CaCl2
[2] = biological target: Recombinant gp41 protein from HIV-1 (HXB2 strain) (HIV-1 (HXB2 strain)) (UniProt P04578); assay: as above
[3] = biological target: Recombinant gp120 protein from HIV-1 strain IIIB (HIV-1 strain IIIB) (UniProt P04578)

Row | Substance | Kd [1] | koff [1] | kon [1] | Kd [2] | koff [2] | kon [2] | inhibition of HIV-1 infection in human CD4+ T-lymphocytic C8166 cell and Raji DCSIGN cultures (data not shown) [3]
1 | Hippeastrum hybrid (amaryllis) lectin (HHA) (natural protein) | 1.32 nM | 0.00219 s⁻¹ | 1.66e+06 M⁻¹ s⁻¹ | 0.836 nM | 0.00229 s⁻¹ | 2.75e+06 M⁻¹ s⁻¹ | –
2 | Lectin domain of Msa (Lp_1229) of Lactobacillus plantarum WCFS1 (from UniProt F9UN23 1-1010) (domain or fragment) | 6260 nM | 0.0164 s⁻¹ | 2620 M⁻¹ s⁻¹ | 3300 nM | 0.0236 s⁻¹ | 7150 M⁻¹ s⁻¹ | –
3 | Lectin domain of Msl (Cmpg5300.05_29) of Lactobacillus plantarum CMPG5300 (domain or fragment) | 1850 nM | 0.0564 s⁻¹ | 30500 M⁻¹ s⁻¹ | 1620 nM | 0.0288 s⁻¹ | 22900 M⁻¹ s⁻¹ | > 200 µg/mL
